Laboratory results as given in patent US20230295275A1 (FLAGSHIP PIONEERING INNOVATIONS VI, published 2023).

Tests used:
[1] = target: soluble G614 HexaPro spike ectodomain (SARS-CoV-2, UniProt P0DTC2 14-1208)
D614 SARS-CoV-2 spike = D614 SARS-CoV-2 spike (SARS-CoV-2, UniProt P0DTC2 14-1208)

| Binder | Kd [1] [nM] | Kd (D614 SARS-CoV-2 spike) [nM] |
| --- | --- | --- |
| AB-1 full-length IgG1 (antibody, V domains shown) VH: QMQLVQSGTEVKKPGESLKISCKGSGYGFITVWIGWVRQMPGKGLEWMGIIYPGDSETRYSPSFQGQVTISADKSINTAYLQWSSLKASDTAIYYCAGGSGISTPMDVWGQGTTVTVSS VL: not shown | 3.39 | 1.66 |
| AB-2 full-length IgG1 (antibody, V domains shown) VH: QMQLVQSGTEVKKPGESLKISCKGSGSGTITVWIGWVRQMPGKGLEWMGIIYPGDSETRYSPSFQGQVTISADKSINTAYLQWSSLKASDTAIYYCAGGSGISTPMDVWGQGTTVTVSS VL: not shown | 2.79 | 1.48 |
| AB-4 full-length IgG1 (antibody, V domains shown) VH: QMQLVQSGTEVKKPGESLKISCKGSGSGFITYWIGWVRQMPGKGLEWMGIIYPGDSETRYSPSFQGQVTISADKSINTAYLQWSSLKASDTAIYYCAGGSGIHTPMDVWGQGTTVTVSS VL: not shown | 2.71 | 1.72 |
| AB-3 full-length IgG1 (antibody, V domains shown) VH: QMQLVQSGTEVKKPGESLKISCKGSGSGFITVWIGWVRQMPGKGLEWMGIIYPGDSETRYSPSFQGQVTISADKSINTAYLQWSSLKASDTAIYYCAGGSGISTPMDVWGQGTTVTVSS VL: not shown | 1.74 | 0.907 |
